{
  "source": "paper PMC9306533",
  "about": "(Journal of Neurochemistry, 2022)",
  "molecules": {"B1": {"name": "GRK3‐Rluc8 (enzyme, human, UniProt P35626 1-688, looked up)", "chain": "MADLEAVLADVSYLMAMEKSKATPAARASKRIVLPEPSIRSVMQKYLAERNEITFDKIFNQKIGFLLFKDFCLNEINEAVPQVKFYEEIKEYEKLDNEEDRLCRSRQIYDAYIMKELLSCSHPFSKQAVEHVQSHLSKKQVTSTLFQPYIEEICESLRGDIFQKFMESDKFTRFCQWKNVELNIHLTMNEFSVHRIIGRGGFGEVYGCRKADTGKMYAMKCLDKKRIKMKQGETLALNERIMLSLVSTGDCPFIVCMTYAFHTPDKLCFILDLMNGGDLHYHLSQHGVFSEKEMRFYATEIILGLEHMHNRFVVYRDLKPANILLDEHGHARISDLGLACDFSKKKPHASVGTHGYMAPEVLQKGTAYDSSADWFSLGCMLFKLLRGHSPFRQHKTKDKHEIDRMTLTVNVELPDTFSPELKSLLEGLLQRDVSKRLGCHGGGSQEVKEHSFFKGVDWQHVYLQKYPPPLIPPRGEVNAADAFDIGSFDEEDTKGIKLLDCDQELYKNFPLVISERWQQEVTETVYEAVNADTDKIEARKRAKNKQLGHEEDYALGKDCIMHGYMLKLGNPFLTQWQRRYFYLFPNRLEWRGEGESRQNLLTMEQILSVEETQIKDKKCILFRIKGGKQFVLQCESDPEFVQWKKELNETFKEAQRLLRRAPKFLNKPRSGTVELPKPSLCHRNSNGL"}},
  "key": {"[1]": {"target": "GRK3 (G protein‐coupled receptor kinase 3) (UniProt P35626)", "assay": "BRET, CB1R-YFP and GRK3-Rluc8", "details": "sites S425,S429"}, "β‐arrestin2": {"target": "β‐arrestin2 (UniProt P32121)", "assay": "BRET, CB1R-YFP and β-arrestin2-Rluc", "details": "reference: wild type; sites S425,S429"}, "CB1R_6D‐YFP": {"target": "CB1R_6D‐YFP (human, UniProt P21554 1-472, serine/threonine residues of 460TMSVSTDTS468 to aspartic acid)", "assay": "FRET or BRET"}, "CB1R_6A‐YFP": {"target": "CB1R_6A‐YFP (human, UniProt P21554 1-472, serine/threonine residues of 460TMSVSTDTS468 to alanine)", "assay": "FRET or BRET"}, "CB1R_2A‐YFP": {"target": "CB1R_2A‐YFP (human, UniProt P21554 1-472, S425A | S429A)", "assay": "FRET or BRET"}, "CB1R_2D‐YFP": {"target": "CB1R_2D‐YFP (human, UniProt P21554 1-472, S425 mutated into aspartate | S429D)", "assay": "FRET or BRET"}, "CB1R‐YFP (wild type)": {"target": "CB1R‐YFP (wild type) (human, UniProt P21554 1-472)", "assay": "FRET or BRET"}, "[2]": {"details": "reference: 460…468 mutant, S425/S429 intact"}},
  "data": [
    {"molecule": "Cannabinoid receptor 1 (CB1R) (from UniProt P21554) 425AMGDA429_460…468", "values": [
      {"measurement": "other: agonist-promoted mBRET at 5 min", "setting": "[1]; [2]", "result": "weaker; reference 28.95 ± 2.18"},
      {"measurement": "other: agonist-promoted mBRET at 30 min", "setting": "[1]; [2]", "result": "stronger; reference 27.11 ± 3.71"}
    ]},
    {"molecule": "Cannabinoid receptor 1 (CB1R) (from UniProt P21554) CB1R_2A (S425A, S429A)", "values": [
      {"measurement": "other: agonist-promoted mBRET at 5 min", "setting": "β‐arrestin2", "result": "weaker; reference 29.33 ± 1.93"},
      {"measurement": "other: agonist-promoted mBRET at 5 min", "setting": "[1]; reference: wild type", "result": "stronger; reference 23.62 ± 3.54"}
    ]},
    {"molecule": "Cannabinoid receptor 1 (CB1R) (from UniProt P21554) CB1R_2D (S425D, S429D)", "values": [
      {"measurement": "other: agonist-promoted mBRET at 5 min", "setting": "β‐arrestin2", "result": "weaker; reference 29.93 ± 1.51"},
      {"measurement": "other: agonist-promoted mBRET at 5 min", "setting": "[1]; reference: wild type", "result": "same; reference 35.54 ± 2.26"}
    ]},
    {"molecule": "B1", "values": [
      {"measurement": "agonist-promoted mBRET at 5 min", "setting": "CB1R_6D‐YFP", "result": 27.5, "unit": "mBRET"},
      {"measurement": "agonist-promoted mBRET at 5 min", "setting": "CB1R_6A‐YFP", "result": 9.88, "unit": "mBRET"},
      {"measurement": "agonist-promoted mBRET at 5 min", "setting": "CB1R_2A‐YFP", "result": 63.6, "unit": "mBRET"},
      {"measurement": "agonist-promoted mBRET at 5 min", "setting": "CB1R_2D‐YFP", "result": 31.7, "unit": "mBRET"},
      {"measurement": "agonist-promoted mBRET at 30 min", "setting": "CB1R‐YFP (wild type)", "result": 8.82, "unit": "mBRET"}
    ]}
  ]
}
